Measurements reported in patent US10076576B2, “Minimally toxic prodrugs” (priority 2012, dated 2018).
Several values for one entry are separate records, joined by “and”; a condition that tells them apart may be missing. Equal entries are not always repeated. Entries after “also recorded” stand apart in the source; their conditions may differ. Where two headings read alike, the source gives them in different places.

Legend:
[1] = mouse, in vivo, iv, 86.2 umol/kg
Experimental: Time evolution of plasma concentration (A, B) and of cardiac tissue concentration (C, D) of Doxorubicin or PhAc-ALGP-Dox and its metabolites after i.v. bolus injection to OF-1 female wild type mice at the dose of 86.2 μmol/kg. Results represent the mean concentration±SD (n=3).
Pharmacokinetic tissue distribution studies were performed using OF-1 mice. […] At different time points after drug administration (5 min, 30 min, 1 h, 4 h, 7 h, 16 h and 24 h) 3 mice per group were sacrificed by cervical dislocation and blood and heart tissue were collected. Hearts were incised and rinsed carefully in phosphate buffer saline (to eliminate blood in the cardiac cavities), dried on paper and frozen in liquid nitrogen. They were stored until analysis. Blood samples were centrifuged (10 min, 2000 g, 4° C.) to separate the plasma fraction, which was stored for analysis. The hearts were homogenized with an Ultraturrax homogenizer in 1.5 mL water. The protein concentration was measured using the microBCA protein assay (Pierce). The drug tissue quantification was made by HPLC after extraction: 150 μL of acetonitrile was added to the 50 μL samples. Samples were vortexed and centrifuged for 10 min at 13 000 rpm at room temperature. Supernatant was collected. Samples were buffered by addition of 200 mM formiate buffer pH 4.5 (1 V sample supernatant+3 V buffer) before HPLC analysis (fluo detection ex=235 nm em=560 nm).

[2] = molecular target: T1, CD10 (recombinant human neprilysin) (Homo sapiens, UniProt P08473); assay: Reactivation assay with purified CD10; type: biochemical; conditions: 3 h at 37° C., 50 μM compound
T1 construct: purchased R&D systems 1182-ZN
T1 sequence (P08473 52-750 limits assumed): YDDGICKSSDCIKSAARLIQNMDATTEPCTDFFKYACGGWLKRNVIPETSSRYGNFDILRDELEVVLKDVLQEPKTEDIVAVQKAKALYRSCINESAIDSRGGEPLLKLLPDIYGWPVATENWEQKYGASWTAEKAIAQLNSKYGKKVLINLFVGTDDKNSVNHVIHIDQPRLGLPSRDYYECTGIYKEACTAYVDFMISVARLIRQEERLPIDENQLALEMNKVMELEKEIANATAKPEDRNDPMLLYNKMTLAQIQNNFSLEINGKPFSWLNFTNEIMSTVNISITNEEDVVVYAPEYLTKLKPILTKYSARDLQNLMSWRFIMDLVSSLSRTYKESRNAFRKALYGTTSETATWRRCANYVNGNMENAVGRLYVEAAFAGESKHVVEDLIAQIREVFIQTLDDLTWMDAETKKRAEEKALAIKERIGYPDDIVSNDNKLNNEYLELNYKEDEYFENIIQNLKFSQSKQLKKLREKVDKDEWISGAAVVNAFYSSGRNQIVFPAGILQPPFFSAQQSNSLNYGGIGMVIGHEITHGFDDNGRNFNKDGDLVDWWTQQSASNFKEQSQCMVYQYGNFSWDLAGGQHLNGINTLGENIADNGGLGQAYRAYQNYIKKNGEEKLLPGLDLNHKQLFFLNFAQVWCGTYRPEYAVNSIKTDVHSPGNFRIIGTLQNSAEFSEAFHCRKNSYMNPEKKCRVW

[3] = molecular target: T2, TOP (recombinant human thimet oligopeptidase) (Homo sapiens, UniProt P52888); assay: Reactivation assay with purified TOP; type: biochemical; conditions: 3 h at 37° C., 50 μM compound
T2 construct: purchased R&D systems 3439-ZN
T2 sequence (P52888 whole entry): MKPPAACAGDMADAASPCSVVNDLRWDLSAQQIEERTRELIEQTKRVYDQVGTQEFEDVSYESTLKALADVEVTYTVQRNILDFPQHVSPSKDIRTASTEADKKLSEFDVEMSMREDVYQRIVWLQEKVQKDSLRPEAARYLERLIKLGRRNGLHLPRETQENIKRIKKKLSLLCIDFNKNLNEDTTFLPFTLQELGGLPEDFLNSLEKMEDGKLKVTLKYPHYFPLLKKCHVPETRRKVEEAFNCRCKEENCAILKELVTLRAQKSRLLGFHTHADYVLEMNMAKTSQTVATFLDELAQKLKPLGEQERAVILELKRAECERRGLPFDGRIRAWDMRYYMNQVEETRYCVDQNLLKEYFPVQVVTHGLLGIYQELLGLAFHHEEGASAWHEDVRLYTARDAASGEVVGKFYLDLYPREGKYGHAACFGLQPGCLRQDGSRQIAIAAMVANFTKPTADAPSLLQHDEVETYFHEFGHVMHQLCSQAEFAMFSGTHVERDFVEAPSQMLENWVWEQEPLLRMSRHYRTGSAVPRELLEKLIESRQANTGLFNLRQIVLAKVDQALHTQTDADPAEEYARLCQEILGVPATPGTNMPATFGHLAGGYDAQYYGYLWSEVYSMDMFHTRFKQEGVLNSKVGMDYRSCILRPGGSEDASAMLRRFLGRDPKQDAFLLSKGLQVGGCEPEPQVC
Experimental: (§1) TOP (recombinant human thimet oligopeptidase, R&D systems, Ref 3439-ZN) was diluted at 10 nM in a solution of 50 mM Tris-HCl pH 7.4/0.5M NaCl/0.1M DTT. CD26 and FAP were diluted at 1 μg/mL in a Tris-HCl pH 7.5 buffer. Reactions were initiated by addition of 50 μM of each compound to enzymes solutions (1 V enzyme solution+1 V 100 μM drug solution). Samples were incubated for 0, 1, or 3 hours at 37° C. in a water bath in the presence of purified enzymes. Fifty μL of sample were collected at each time point and processed as described above for human plasma. Activation of Suc-βALAL-dox was tested in parallel as a reference.

CD26 = CD26 (Homo sapiens, UniProt P27487); assay: Reactivation assay with purified CD26; type: biochemical; conditions: CD26 1 μg/ml
CD26, sequence (P27487 whole entry): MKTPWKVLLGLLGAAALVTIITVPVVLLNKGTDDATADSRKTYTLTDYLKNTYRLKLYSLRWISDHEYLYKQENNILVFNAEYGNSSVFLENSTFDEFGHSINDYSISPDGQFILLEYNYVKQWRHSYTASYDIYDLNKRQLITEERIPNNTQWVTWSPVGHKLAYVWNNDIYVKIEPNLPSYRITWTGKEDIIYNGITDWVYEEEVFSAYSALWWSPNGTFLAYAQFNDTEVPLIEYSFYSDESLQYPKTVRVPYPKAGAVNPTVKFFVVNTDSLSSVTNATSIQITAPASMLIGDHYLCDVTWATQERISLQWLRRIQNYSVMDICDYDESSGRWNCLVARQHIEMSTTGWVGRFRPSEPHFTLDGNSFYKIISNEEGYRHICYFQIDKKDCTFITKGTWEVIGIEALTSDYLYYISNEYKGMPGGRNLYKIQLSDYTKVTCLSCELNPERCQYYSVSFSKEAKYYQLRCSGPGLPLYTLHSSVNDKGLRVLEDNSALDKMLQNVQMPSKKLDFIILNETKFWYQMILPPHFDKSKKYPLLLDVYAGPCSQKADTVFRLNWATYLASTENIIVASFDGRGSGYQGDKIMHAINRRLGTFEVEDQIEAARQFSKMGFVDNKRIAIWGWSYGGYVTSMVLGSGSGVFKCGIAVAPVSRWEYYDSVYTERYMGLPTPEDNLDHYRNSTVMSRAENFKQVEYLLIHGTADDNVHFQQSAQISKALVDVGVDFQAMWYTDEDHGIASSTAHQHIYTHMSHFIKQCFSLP
Experimental: as §1

FAP = molecular target: T3, FAP (Homo sapiens, UniProt Q12884); assay: Reactivation assay with purified FAP; type: biochemical
T3 sequence (Q12884 1-760): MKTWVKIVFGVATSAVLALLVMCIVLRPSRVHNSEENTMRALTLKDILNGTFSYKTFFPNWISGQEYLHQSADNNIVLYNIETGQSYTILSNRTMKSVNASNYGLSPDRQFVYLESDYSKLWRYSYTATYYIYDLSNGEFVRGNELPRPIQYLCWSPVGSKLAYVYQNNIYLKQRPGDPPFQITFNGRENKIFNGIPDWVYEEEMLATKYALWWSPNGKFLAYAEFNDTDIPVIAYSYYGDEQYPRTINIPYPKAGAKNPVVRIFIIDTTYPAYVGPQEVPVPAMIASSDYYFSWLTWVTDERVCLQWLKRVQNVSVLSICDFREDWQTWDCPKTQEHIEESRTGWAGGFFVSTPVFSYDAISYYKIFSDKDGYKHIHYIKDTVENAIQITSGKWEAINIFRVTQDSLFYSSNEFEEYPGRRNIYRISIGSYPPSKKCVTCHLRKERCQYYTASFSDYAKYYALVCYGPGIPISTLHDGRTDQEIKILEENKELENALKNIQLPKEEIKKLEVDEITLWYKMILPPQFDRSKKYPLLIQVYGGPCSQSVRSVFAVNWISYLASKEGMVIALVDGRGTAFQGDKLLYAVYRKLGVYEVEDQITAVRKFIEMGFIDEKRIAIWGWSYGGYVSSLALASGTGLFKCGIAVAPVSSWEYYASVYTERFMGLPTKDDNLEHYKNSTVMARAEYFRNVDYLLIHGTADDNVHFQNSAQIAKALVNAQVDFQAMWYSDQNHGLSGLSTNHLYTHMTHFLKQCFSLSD
Experimental: as §1

[4] = In vivo toxicity after single iv bolus injection (body weight); parameters: species or system OF-1 mice
Experimental: FIG. 1. Effect of PhAc-peptide-Dox conjugates on the body weight of OF-1 normal mice (n=4). […] Results represent the mean body weight evolution.
The in vivo toxicity was evaluated by monitoring body weight.

[5] = In vitro cytotoxicity on control fibroblasts (neutral red uptake); type: cell-based, mouse; conditions: mouse, inactivated mouse embryonic fibroblasts (MEF), 20 μg/ml
Experimental: FIG. 5. In vitro cellular toxicity of PhAc-ALGP-Dox and Doxorubicin on Cor.At® cells (mouse embryonic stem cell derived cardiomyocytes). As non-specific control, the test was also performed on inactivated mouse embryonic fibroblasts (MEF). Cells were cultured for 48 h in the presence of drugs and a neutral red uptake test was performed to determine cell viability. Results represent the cytotoxicity curves. The IC50 values were calculated from the cytotoxicity curves using the Prism GraphPad software 5.0.
The in vitro cardiotoxicity test was carried out in a relevant and predictive in vitro model for cardiac safety screening in early lead optimization using mouse embryonic stem cell derived cardiomyocytes (Cor.At®, Axiogenesis (Germany)). Cor.At® cardiomyocytes provide a standardized, homogenous and reproducible cell system for the in vitro classification of a compound's cardio-cytotoxic potential. After incubation with test compounds, the neutral red uptake test was used to determine effects which directly affect the viability and integrity of cardiac cells when compared to a non-specific reference cell type, e.g. mouse fibroblasts (MEF).

[6] = type: in vivo, CD1 mice
Text: FIG. 13. Evaluation of chronic cardiotoxicity of PhAc-ALGP-Dox in CD-1 mice. Animals received 10 intravenous injections (arrows) of saline (●); Doxorubicin 6.9 μmol/kg (▪) or of PhAc-ALGP-Dox at 13.8 (▴), 27.6 (×), 55.2 (*) and 82.8 μmol/kg (◯). Results represent the evolution of the average relative body weight (%). †=dead mouse.
Chronic cardiac toxicity of PhAc-ALGP-Dox in mice was morphologically evaluated as previously described by Bertazzoli et al. 1979 (Cancer Treat Rep 63, 1877-1883). CD1 female white mice were treated by bolus intravenous injection in the tail vein at 10 μL/g (6 mice per group). Compounds were injected twice a week, ten times. Animals were not treated for 2 weeks between the first four injections and the last six injections to allow recovery of the bone marrow depression. The treatment dose-levels of PhAc-ALGP-Dox were: 13.8; 27.6; 55.2; and 82.8 μmol/kg. Doxorubicin 6.9 μmol/kg was used as a reference. Three weeks after the last injection, animals were deeply anaesthetized by intraperitoneal injection of nembutal (50 mg/kg) and exsanguinated. The hearts were carefully collected, rinsed in NaCl 9°/oo and fixed in a 10% formaldehyde solution. Samples were processed for histopathological analysis (CITox Lab, France). The heart was trimmed, embedded in paraffin wax, sectioned at a thickness of 4 microns and stained with hematoxylin-eosin before microscopic evaluation. During the course of the experiment, body weight was controlled before each injection or once a week.

[7] = 13.8-82.8 μmol/kg, 10 iv injections

COc1cccc2c1C(=O)c1c(O)c3c(c(O)c1C2=O)C[C@@](O)(C(=O)CO)C[C@@H]3O[C@H]1C[C@H](N)[C@H](O)[C@H](C)O1 [Doxorubicin, reference compound]
Heart AUC of Dox [1]: 5863 pmol · h/mg protein

COc1cccc2c1C(=O)c1c(O)c3c(c(O)c1C2=O)CC(O)(C(=O)CO)CC3OC1CC(NC(=O)C2CCCN2C(=O)CNC(=O)C(CC(C)C)NC(=O)C(C)NC(=O)CP(=O)(O)O)C(O)C(C)O1 (stereo not shown) [PhAc-ALGP-Dox, PhAc-ALGP-doxorubicin]
% Metabolites released after 3 h (CD10 10 nM) [2]: 25% and 25 ± 4% | % Metabolites released after 3 h (TOP 5 nM) [3]: 72% and 72 ± 14% | hydrolysis by CD26 (in words) (CD26): Neither CD26 nor FAP hydrolized; also recorded: did not hydrolyze | hydrolysis by FAP (in words) (FAP): Neither CD26 nor FAP hydrolized; also recorded: did not hydrolyze | maximum body weight loss ([4]; 240 μmol/kg single iv, day 28): 15% | body weight loss (in words) ([4]; 320 μmol/kg single iv): significant body weight loss | mortality ([4]; 320 μmol/kg single iv): one mouse was found dead at day 12 | tolerability (in words) ([4]; 240 and 320 μmol/kg single iv): well tolerated | MTD ([4]; OF-1, mouse, in vivo, single iv bolus injection, read-out: maximum tolerated dose (MTD)): 240 to 320 µmol/kg | times less toxic than Dox ([4]; after one intravenous injection): at least 6 times | viability at 48 h, 20 µg/mL [5]: 81% | body weight loss (in words) [6, 7]: No body weight loss | pathologic microscopic findings in the heart (in words) [6, 7]: did not induce any pathologic microscopic findings in the heart at any dose levels | Atrophy; myofiber ([6]; mouse, in vivo, iv): 0 | Atrophy; myofiber Grade 1 ([6]; mouse, in vivo, iv): 0 | Atrophy; myofiber Grade 2 ([6]; mouse, in vivo, iv): 0 | Degeneration/necrosis; myocardium ([6]; mouse, in vivo, iv): 0 | Degeneration/necrosis; myocardium Grade 1 ([6]; mouse, in vivo, iv): 0 | Enlarg. Nuclei; myofib. ([6]; mouse, in vivo, iv): 0 | Enlarg. Nuclei; myofib. Grade 1 ([6]; mouse, in vivo, iv): 0 | Infiltration; mix. Cells ([6]; mouse, in vivo, iv): 0 | Infiltration; mix. Cells Grade 1 ([6]; mouse, in vivo, iv): 0 | Thrombus; atrium ([6]; mouse, in vivo, iv): 0 | Thrombus; atrium Grade 1 ([6]; mouse, in vivo, iv): 0 | Vacuolation; myofib. ([6]; mouse, in vivo, iv): 0 | Vacuolation; myofib. Grade 1 ([6]; mouse, in vivo, iv): 0 | Vacuolation; myofib. Grade 2 ([6]; mouse, in vivo, iv): 0
